The values that follow come from article PMC12645976, “ARGLU1 is a negative regulator of the adenoviral replicative cycle” (Journal of Virology, 2025).

The assay has as its target T1, 6xHis-E1A289R (HAdV5 E1A289R, 6xHis-tagged fusion protein) (human adenovirus 5 (HAdV5), UniProt P03255 1-289).
T1 construct: Early protein 1A (E1A) of human adenovirus 5 (HAdV5), the 289R product (289 residues by its name); also called Early protein 1A
Nature of the assay: pull-down; GST-ARGLU1 or GST mixed with 6xHis-E1A289R, captured on glutathione beads; 1 µg of each protein; western blot with M73 and M2 monoclonal E1A antibodies; glutathione beads alone as negative control. The settings on record: both partners purified.

T1 sequence (P03255 whole entry, the tested form may be a part): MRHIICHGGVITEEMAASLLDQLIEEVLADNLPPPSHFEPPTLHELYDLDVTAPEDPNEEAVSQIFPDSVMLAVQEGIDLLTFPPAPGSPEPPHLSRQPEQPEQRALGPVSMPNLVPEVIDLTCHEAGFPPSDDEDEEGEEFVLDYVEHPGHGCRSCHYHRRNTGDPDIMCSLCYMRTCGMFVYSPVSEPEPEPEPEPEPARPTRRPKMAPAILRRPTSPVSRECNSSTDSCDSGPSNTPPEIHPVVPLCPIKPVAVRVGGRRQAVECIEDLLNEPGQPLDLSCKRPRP

B1: GST-ARGLU1 (human ARGLU1, GST-tagged fusion protein) (natural protein, UniProt Q9NWB6 1-273, looked up)
chain: MGRSRSRSSSRSKHTKSSKHNKKRSRSRSRSRDKERVRKRSKSRESKRNRRRESRSRSRSTNTAVSRRERDRERASSPPDRIDIFGRTVSKRSSLDEKQKREEEEKKAEFERQRKIRQQEIEEKLIEEETARRVEELVAKRVEEELEKRKDEIEREVLRRVEEAKRIMEKQLLEELERQRQAELAAQKAREEEERAKREELERILEENNRKIAEAQAKLAEEQLRIVEEQRKIHEERMKLEQERQRQQKEEQKIILGKGKSRPKLSFSLKTQD
notes: Arginine and glutamate-rich protein 1 (ARGLU1), human; also called Arginine and glutamate-rich protein 1; source: E. coli BL21 (DE3)-CodonPlus RIPL, purified (glutathione Sepharose, eluted with reduced glutathione, dialyzed)
For the molecule B1, the binding result was “binds”.
